According to US20250076311A1 (Chugai, published 2025):
Residue numbers refer to the chain shown, from its start.

What was measured:
[1] = target: T1, human FcγRIIaR extracellular domain with C-terminal His-tag (human, UniProt P12318 34-217); assay: SPR (Biacore), antibody captured, FcgR analyte
T1 construct: also called human FcgRIIaR; FcγRIIa (type R)
T1 chain: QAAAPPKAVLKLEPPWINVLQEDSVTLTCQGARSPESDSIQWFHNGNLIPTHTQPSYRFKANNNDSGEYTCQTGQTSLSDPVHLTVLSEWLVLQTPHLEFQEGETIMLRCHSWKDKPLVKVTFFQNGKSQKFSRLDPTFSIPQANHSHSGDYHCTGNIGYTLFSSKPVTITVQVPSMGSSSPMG
Method: (§1) The kinetic analysis of interactions between these antibodies and FcγR was carried out using BIACORE® T200 or BIACORE® 4000 (GE Healthcare). HBS-EP+ (GE Healthcare) was used as the running buffer, and the measurement temperature was set to 25° C. […] After the measurement, the antibody captured on the chip was washed off by allowing reaction with 10 mM glycine-HCl, pH1.5 and 25 mM NaOH so that the chip was regenerated and used repeatedly. The sensorgrams obtained as measurement results were analyzed by the 1:1 Langmuir binding model using the BIACORE® Evaluation Software to calculate the binding rate constant ka (L/mol/s) and dissociation rate constant kd (1/s), and the dissociation constant KD (mol/L) was calculated from these values. […] Regarding such interactions, KD values were calculated using the following 1:1 binding model described in BIACORE® T100 Software Handbook BR1006-48 Edition AE.

[2] = target: T2, cynomolgus monkey FcγRIIIaS extracellular domain with C-terminal His-tag (cynomolgus monkey, UniProt Q8SPW2 21-206 at identity 1.00)); assay: SPR (Biacore), KD of SG1 / KD of variant
T2 construct: also called cyno FcgRIIIaS; cynoFcγRIIIaS
T2 chain: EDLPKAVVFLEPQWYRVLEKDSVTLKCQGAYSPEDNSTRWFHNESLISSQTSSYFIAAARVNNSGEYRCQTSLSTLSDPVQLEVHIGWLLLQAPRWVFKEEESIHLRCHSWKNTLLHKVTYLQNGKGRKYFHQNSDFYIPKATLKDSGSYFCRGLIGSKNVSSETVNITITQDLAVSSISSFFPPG

[3] = target: T2, cynomolgus monkey FcγRIIIaS …; assay: SPR (Biacore), antibody captured, FcgR analyte
Method: as §1

[4] = target: T3, cynomolgus monkey FcγRIIa2 extracellular domain with C-terminal His-tag (cynomolgus monkey); assay: SPR (Biacore), KD of SG1 / KD of variant
T3 construct: also called cyno FcgRIIa2; cynoFcγRIIa2
T3 chain: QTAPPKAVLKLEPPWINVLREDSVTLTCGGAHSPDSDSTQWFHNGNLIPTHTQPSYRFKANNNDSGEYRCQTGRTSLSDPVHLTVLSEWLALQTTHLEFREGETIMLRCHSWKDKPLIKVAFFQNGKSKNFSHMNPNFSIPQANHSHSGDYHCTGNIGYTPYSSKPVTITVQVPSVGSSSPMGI

[5] = target: T4, cynomolgus monkey FcγRIIa3 extracellular domain with C-terminal His-tag (cynomolgus monkey); assay: SPR (Biacore), KD of SG1 / KD of variant
T4 construct: also called cyno FcgRIIa3; cynoFcγRIIa3
T4 chain: T3 chain with K127I, N130K, H133P, Q142R

[6] = target: T5, human FcγRIIIaV extracellular domain with C-terminal His-tag (human, UniProt P08637 17-208); assay: SPR (Biacore), KD of SG1 / KD of variant
T5 construct: also called human FcgRIIIaV
T5 sequence (P08637 17-208 F176V): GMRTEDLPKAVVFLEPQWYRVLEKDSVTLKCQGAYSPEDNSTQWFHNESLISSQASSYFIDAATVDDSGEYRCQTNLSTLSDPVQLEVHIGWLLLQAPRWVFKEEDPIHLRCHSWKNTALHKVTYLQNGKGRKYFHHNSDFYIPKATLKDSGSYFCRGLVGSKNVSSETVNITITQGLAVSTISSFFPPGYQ

[7] = target: T6, human FcγRIIaH extracellular domain with C-terminal His-tag (human, UniProt P12318 34-217); assay: SPR (Biacore), KD of SG1 / KD of variant
T6 construct: also called human FcgRIIaH; FcγRIIa (type H)
T6 sequence: T1 chain with R134H

[8] = target: T1, human FcγRIIaR extracellular domain …; assay: SPR (Biacore), KD of SG1 / KD of variant
[9] = target: T7, human FcγRIIIaV extracellular domain, His-tagged (human, UniProt P08637 17-208); assay: SPR (BIACORE), antibody captured, FcγR analyte, 25 C; KD of SG1 divided by KD of variant
T7 construct: also called human FcγRIIIa (V158); FcgRIIIaV
T7 sequence (P08637 17-208 F176V): as above
Method: as §1

[10] = target: T8, cynomolgus monkey FcγRIIIaS extracellular domain, His-tagged (cynomolgus monkey, UniProt Q8SPW2 21-206 at identity 1.00)); assay: as above
T8 construct: also called cyno FcγRIIIaS; cynoFcgRIIIaS
T8 chain: T2 chain
Method: as §1

[11] = target: T9, cynomolgus monkey FcγRIIb extracellular domain, His-tagged (cynomolgus monkey); assay: as above
T9 construct: also called cyno FcγRIIb; cynoFcgRIIb
T9 chain: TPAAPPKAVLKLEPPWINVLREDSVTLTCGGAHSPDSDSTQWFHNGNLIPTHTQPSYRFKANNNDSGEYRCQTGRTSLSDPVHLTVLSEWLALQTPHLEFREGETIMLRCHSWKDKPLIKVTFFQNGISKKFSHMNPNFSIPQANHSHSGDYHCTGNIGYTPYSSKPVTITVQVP
Method: as §1

[12] = target: T5, human FcγRIIIaV extracellular domain …; assay: SPR (Biacore), antibody captured, FcgR analyte
Method: as §1

[13] = target: T10, human FcγRIIaH extracellular domain, His-tagged (human, UniProt P12318 34-217); assay: SPR (BIACORE), antibody captured, FcγR analyte, 25 C; KD of SG1 divided by KD of variant
T10 construct: also called human FcγRIIa (type H); FcgRIIaH
T10 sequence: T1 chain with R134H
Method: as §1

[14] = target: T11, cynomolgus monkey FcγRIIIaS extracellular domain with C-terminal His-tag (cynomolgus monkey, UniProt Q8SPW2 21-206 at identity 1.00)); assay: SPR; KD of SG1 / KD of variant
T11 construct: also called cyno FcγRIIIaS; FcgRIIIaS
T11 chain: T2 chain

[15] = target: T12, cynomolgus monkey FcγRIIa1 extracellular domain with C-terminal His-tag (cynomolgus monkey); assay: SPR; KD of SG1 / KD of variant
T12 construct: also called cyno FcγRIIa1; FcgRIIa1
T12 chain: T3 chain with T95P, A121T, K127I, S128A, N130K, N135D, Q142R

[16] = target: T6, human FcγRIIaH extracellular domain …; assay: SPR (Biacore), antibody captured, FcgR analyte
Method: as §1

B1: M103205H795-MY441/M103202L889-SK1 (antibody, human IgG1, kappa)
heavy: QVTLKESGPVLVKPTETLTLTCTVSGIDLSHDDISWVRQAPGKGLEWVGIISYAGSTYYASWAKGRLTISKDTSKNQVVLTMTNMDPVDTATYYCARGVPAYSHGGDLWGQGTLVTVSSASTKGPSVFPLAPSSKSTSGGTAALGCLVKDYFPEPVTVSWNSGALTSGVHTFPAVLQSSGLYSLSSVVTVPSSSLGTQTYICNVNHKPSNTKVDKKVEPKSCDKTHTCPPCPAAELLTGPSVFLFPPKPKDTLMISRTPEVTCVVVDVSDEDPEVKFNWYVDGVEVHNAKTKPREEQYNSTYRVVSVLTVLHQDWLNGKEYKCKVSNKALPKPIEKTISKAKGQPREPQVYTLPPSREEMTKNQVSLTCLVKGFYPSDIAVEWESNGQPENNYKTTPPVLDSDGSFFLYSKLTVDKSRWQQGNVFSCSVMHEALHNHYTQKSLSLSP
light: DIVMTQSPATLSLSPGERATLSCTSSQSVYHANWLSWFQQKPGQPPKLLIYWASTLAYGVPSRFSGSGSGTDFTLTISSLQPEDAATYYCAGGYGGGRYAFGQGTKVEIKRTVAAPSVFIFPPSDEQLKSGTASVVCLLNNFYPREAKVQWKVDNALQSGNSQESVTEQDSKDSTYSLSSTLTLSKADYEKHKVYACEVTHQGLSSPVTKSFNRGEC
notes: Substitutions in EU numbering on SG1
Kd [1]: 0.6 µM
KD fold (SG1 = 1) [2]: 0.2 fold

B2: M103205H795-MY460/M103202L889-SK1 (antibody)
chain 1: B1 heavy with A233E, A234P
chain 2: B1 light
KD fold (SG1 = 1) [2]: 0.2 fold

B3: M103205H795-MY454/M103202L889-SK1 (antibody, human IgG1, kappa)
heavy: B1 heavy with A234S
light: B1 light
notes: as for B1
Kd [3]: 2.8 µM
KD fold (SG1 = 1) [4]: 1.8 fold
KD fold (SG1 = 1) [5]: 2.2 fold

B4: M103205H795-MY444/M103202L889-SK1 (antibody, human IgG1, kappa)
heavy: B1 heavy with A234F
light: B1 light
notes: as for B1
KD fold (SG1 = 1) [6]: 0.2 fold
KD fold (SG1 = 1) [7]: 6.5 fold
KD fold (SG1 = 1) [5]: 8.9 fold
KD fold (SG1 = 1) [8]: 7.5 fold

B5: M103205H795-MY453/M103202L889-SK1 (antibody, human IgG1, kappa, name in EU numbering)
heavy: B1 heavy with A234R
light: B1 light
KD fold (SG1 = 1) [9]: 0.2 fold
KD fold (SG1 = 1) [10]: 0.2 fold
KD fold (SG1 = 1) [11]: 0.9 fold

B6: M103205H795-MY454/M103202L889-SK1 (antibody, human IgG1, kappa, name in EU numbering)
heavy: B1 heavy with A234S
light: B1 light
KD fold (SG1 = 1) [9]: 0.2 fold
KD fold (SG1 = 1) [10]: 0.2 fold
KD fold (SG1 = 1) [11]: 1.8 fold

B7: M103205H795-MY458/M103202L889-SK1 (antibody, human IgG1, kappa)
heavy: B1 heavy with A234Y
light: B1 light
notes: as for B1
Kd [3]: 1.9 µM

B8: M103205H795-MY466/M103202L889-SK1 (antibody)
heavy: B1 heavy with A233L, A234P
light: B1 light
notes: as for B1
Kd [12]: 4.6 µM
Kd [1]: 0.26 µM
KD fold (SG1 = 1) [6]: 0.2 fold
KD fold (SG1 = 1) [4]: 2.8 fold

B9: M103205H795-MY457/M103202L889-SK1 (antibody, human IgG1, kappa, name in EU numbering)
heavy: B1 heavy with A234W
light: B1 light
KD fold (SG1 = 1) [13]: 5.6 fold

B10: M103205H795-MY273 (heavy chain) with M103202L889-SK1 (light chain) (antibody, human IgG1, kappa, name in EU numbering)
heavy: B1 heavy with A234P, T238L, P398K
light: B1 light
notes: Substitutions introduced into M103205H795-SG1; positions in EU numbering
KD fold (SG1 = 1) [14]: 0.21 fold
KD fold (SG1 = 1) [15]: 0.9 fold

B11: M103205H795-MY443/M103202L889-SK1 (antibody, human IgG1, kappa)
heavy: B1 heavy with A234E
light: B1 light
notes: as for B1
KD fold (SG1 = 1) [7]: 1.5 fold
KD fold (SG1 = 1) [2]: 0.2 fold
KD fold (SG1 = 1) [5]: 1.5 fold

B12: M103205H795-MY459/M103202L889-SK1 (antibody)
heavy: B1 heavy with A233D, A234P
light: B1 light
notes: as for B1
KD fold (SG1 = 1) [7]: 1.6 fold
KD fold (SG1 = 1) [2]: 0.2 fold

B13: M103205H795-MY449/M103202L889-SK1 (antibody, human IgG1, kappa, name in EU numbering)
heavy: B1 heavy with A234L
light: B1 light
KD fold (SG1 = 1) [9]: 0.2 fold

B14: M103205H795-MY455/M103202L889-SK1 (antibody, human IgG1, kappa, name in EU numbering)
heavy: B1 heavy with A234T
light: B1 light
KD fold (SG1 = 1) [13]: 2.7 fold
KD fold (SG1 = 1) [10]: 0.2 fold

B15: M103205H795-MY449/M103202L889-SK1 (antibody, human IgG1, kappa)
heavy: B1 heavy with A234L
light: B1 light
notes: as for B1
Kd [16]: 0.098 µM

B16: M103205H795-MY452/M103202L889-SK1 (antibody, human IgG1, kappa, name in EU numbering)
heavy: B1 heavy with A234Q
light: B1 light
KD fold (SG1 = 1) [13]: 2.9 fold
KD fold (SG1 = 1) [10]: 0.2 fold
